Tested on: DosR (His6-DosR, pre-phosphorylated with acetyl phosphate) (Mycobacterium tuberculosis)
Test: EMSA

hspX promoter probe
binding signal (fold inhibition of binding vs DMSO): 22

Reference: article PMC6970277
